{"source": "IntAct's records for PubMed 23468591", "parents": {"B1": {"name": "IkB-like protein (African swine fever virus (isolate Tick/Malawi/Lil 20-1/1983)), O36972 (parent)", "chain": "MDTIGLFSVEAEHLFVEWVKKCIKKGDLTLFETLFNADPWIVNRCNKNKITVFMLICIYGRLDFLRFLFKQESYPGEIVNHYRRDKDGNSAWHYLAEKNNHLLLEEVLDYFGKNGIRVCFPNFNGVTPIMKAAMRGRTLSVLSLLKYGANPNRKDYLKGFTTWDWAVFTGHADLVKTLNKGYQKPLFMHFPLYKLDVFHRRFKKKPKIIITGCEDNVYEKLPEQNSNFLCVKKLNKYGK"}}}
{"variants_of": "B1", "conditions": "with PPP3CA"}
{"variant": "F228A;L229A;V231A;K232A", "effect of a mutation on the interaction": "disrupting interaction strength"}
